Measured values from US20220347304A1 (CYTOKI PHARMA, published 2022).
Residue numbers refer to the chain shown, from its start.

B1: Derivative 2 (ligand)
chain: GPGSGSGSCGSGSGSAPISSHCRLDKSNFQQPYITNRTFMLAKEASLADNNTDVRLIGEKLFHGVSMSERCYLMKQVLNFTLEEVLFPQSDRFQPYMQEVVPFLARLSNRLSTCHIEGDDLHIQRNVQKLKDTVKKLGESGEIKAIGELDLLFMSLRNACI
modifications: C18 diacid attached by linker γGlu-OEG-OEG-C2DA-Ac to Cys at site -7C (in the 15-mer N-terminal peptide G-P-G-S-G-S-G-S-C-G-S-G-S-G-S, numbered negatively from hIL-22 residue 1)
B2: Derivative 1 (ligand)
chain: GPGCPISSHCRLDKSNFQQPYITNRTFMLAKEASLADNNTDVRLIGEKLFHGVSMSERCYLMKQVLNFTLEEVLFPQSDRFQPYMQEVVPFLARLSNRLSTCHIEGDDLHIQRNVQKLKDTVKKLGESGEIKAIGELDLLFMSLRNACI
modifications: C18 diacid attached by linker γGlu-OEG-OEG-C2DA-Ac to Cys at site 1C (Cys substituted at position 1 of hIL-22, after the G-P-G N-terminal peptide)
B3: Derivative 6 (ligand)
chain: B2 chain with N38Q, N67Q
modifications: C18 diacid attached by linker γGlu-OEG-OEG-C2DA-Ac to Cys at site 1C (Cys substituted at position 1 of hIL-22)
B4: Comparator 4 (ligand)
chain: B2 chain
B5: native mature human IL-22 (hIL-22) (ligand)
chain: APISSHCRLDKSNFQQPYITNRTFMLAKEASLADNNTDVRLIGEKLFHGVSMSERCYLMKQVLNFTLEEVLFPQSDRFQPYMQEVVPFLARLSNRLSTCHIEGDDLHIQRNVQKLKDTVKKLGESGEIKAIGELDLLFMSLRNACI
B6: Comparator 1 (ligand)
chain: B5 chain with A1G
B7: Derivative 3 (ligand)
chain: B2 chain
modifications: C16 diacid attached by linker γGlu-OEG-OEG-C2DA-Ac to Cys at site 1C (Cys substituted at position 1 of hIL-22)
B8: Derivative 4 (ligand)
chain: B1 chain
modifications: C16 diacid attached by linker γGlu-OEG-OEG-C2DA-Ac to Cys at site -7C (in the 15-mer N-terminal peptide)
B9: Derivative 8 (ligand)
chain: GAPISSCCRLDKSNFQQPYITNRTFMLAKEASLADQNTDVRLIGEKLFHGVSMSERCYLMKQVLQFTLEEVLFPQSDRFQPYMQEVVPFLARLSNRLSTCHIEGDDLHIQRNVQKLKDTVKKLGESGEIKAIGELDLLFMSLRNACI
modifications: C18 diacid attached by linker γGlu-OEG-OEG-C2DA-Ac to Cys at site 6C (Cys substituted at position 6 of hIL-22)
B10: Derivative 10 (ligand)
chain: B2 chain with N38Q, N67Q
modifications: C16 diacid attached by linker γGlu-OEG-OEG-C2DA-Ac to Cys at site 1C (Cys substituted at position 1 of hIL-22)
B11: Comparator 5 (ligand)
chain: B2 chain with N38Q, N67Q
B12: Derivative 9 (ligand)
chain: B5 chain with A33C, N35Q, N64Q
modifications: C18 diacid attached by linker γGlu-OEG-OEG-C2DA-Ac to Cys at site 33C (Cys substituted at position 33 of hIL-22)

These binders were tested against T1, human IL-22 receptor (human IL-22Ra and human IL-10Rb) on cells (human, UniProt Q8N6P7 16-574; Q08334 20-325) (assay: cell-based or functional assay).
T1 sequence (looked up) 1: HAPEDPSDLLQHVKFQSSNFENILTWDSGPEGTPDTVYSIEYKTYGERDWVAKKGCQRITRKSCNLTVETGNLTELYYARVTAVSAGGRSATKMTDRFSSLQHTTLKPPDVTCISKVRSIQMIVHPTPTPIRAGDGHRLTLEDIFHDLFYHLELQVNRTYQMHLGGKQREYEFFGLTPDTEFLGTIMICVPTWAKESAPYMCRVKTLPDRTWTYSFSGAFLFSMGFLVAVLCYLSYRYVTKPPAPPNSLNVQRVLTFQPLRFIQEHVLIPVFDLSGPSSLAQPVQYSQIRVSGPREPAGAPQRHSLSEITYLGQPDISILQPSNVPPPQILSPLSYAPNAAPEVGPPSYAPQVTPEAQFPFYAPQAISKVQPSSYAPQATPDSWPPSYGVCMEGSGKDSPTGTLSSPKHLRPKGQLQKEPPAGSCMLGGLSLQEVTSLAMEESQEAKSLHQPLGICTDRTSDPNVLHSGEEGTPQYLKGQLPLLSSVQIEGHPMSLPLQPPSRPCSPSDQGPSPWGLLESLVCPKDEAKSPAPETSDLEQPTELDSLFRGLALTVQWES
T1 sequence (looked up) 2: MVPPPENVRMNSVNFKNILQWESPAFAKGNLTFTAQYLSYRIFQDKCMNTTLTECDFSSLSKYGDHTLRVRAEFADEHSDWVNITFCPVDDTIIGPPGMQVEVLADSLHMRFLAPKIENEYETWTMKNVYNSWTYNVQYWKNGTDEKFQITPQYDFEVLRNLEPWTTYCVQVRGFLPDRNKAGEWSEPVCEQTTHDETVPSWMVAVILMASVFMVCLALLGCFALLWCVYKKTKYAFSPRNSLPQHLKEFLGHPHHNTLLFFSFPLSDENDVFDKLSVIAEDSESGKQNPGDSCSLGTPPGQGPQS
In the case of B1, the “EC50, pSTAT3 (AlphaScreen SureFire STAT3 p-Tyr705) in HepG2 cells” value is reported as 6.98 nM.
For B2, the “EC50, pSTAT3 (AlphaScreen SureFire STAT3 p-Tyr705) in HepG2 cells” value was 10.1 nM.
In the case of B3, the “EC50, pSTAT3 (AlphaScreen SureFire STAT3 p-Tyr705) in HepG2 cells” value is reported as 14.9 nM.
In the case of B4, the “EC50, pSTAT3 (AlphaScreen SureFire STAT3 p-Tyr705) in HepG2 cells” value is reported as 12.1 nM.
For B5, the “EC50, pSTAT3 (AlphaScreen SureFire STAT3 p-Tyr705) in HepG2 cells” value was 3.88 nM.
For B6, the “EC50, pSTAT3 (AlphaScreen SureFire STAT3 p-Tyr705) in HepG2 cells” value was 4.73 nM.

Target: T1, human IL-22 receptor (human IL-22Ra and …)
Assay: cell-based or functional assay
Remark: another data set of the same source
B2 was tested, and the “potency in BHK cell reporter gene assay, fold reduction against hIL-22” value was 7 fold and the “potency in HepG2 pSTAT3 assay, fold reduction against hIL-22” value was 2.5 fold.
B7 was tested, and the “potency in BHK cell reporter gene assay, fold reduction against hIL-22” value was 4 fold.

Target: T1, human IL-22 receptor (human IL-22Ra and …)
Assay: cell-based or functional assay
Remark: another data set of the same source
With B8 the “EC50, luciferase reporter gene (STAT3-induced promoter) in BHK cells expressing human IL-22Ra and IL-10Rb” value (“EC50, luciferase reporter gene” for short) was 0.18 nM.
B9 was tested, and the “EC50, luciferase reporter gene” value was 1.24 nM.
B10 was tested, and the “EC50, luciferase reporter gene” value was 0.37 nM.
For B2, the “EC50, luciferase reporter gene” value was 0.48 nM.
B11 was tested, and the “EC50, luciferase reporter gene” value was 0.19 nM.
With B3 the “EC50, luciferase reporter gene” value was 0.61 nM.
With B7 the “EC50, luciferase reporter gene” value was 0.3 nM.
In the case of B5, the “EC50, luciferase reporter gene” value is reported as 0.07 nM.
With B6 the “EC50, luciferase reporter gene” value was 0.06 nM.
For B12, the “EC50, luciferase reporter gene” value was 0.28 nM.
